Key:
[1] = pI of T. maritima proteins; type: physicochemical, Thermotoga maritima
[2] = Fractionation of soluble and insoluble recombinant protein by cell lysis and centrifugation / SDS-PAGE; type: physicochemical; details: T. maritima proteins expressed in E. coli; SDS-PAGE of soluble and insoluble fractions
Description: E. coli strains MG1655 (F^−lam rph1) and KY1429 (F- araD139 Δ(argF-lac)169 lam flhD5301 fruA25 relA1 rpsL150 zhh50::Tn10 rpoH606(ts) deoC1) were transformed with expression plasmids encoding M36881 (LCK) or M86400 (PLA) for expression profiling. Cells were cultured at 37° C. in Luria Broth containing ampicillin. Protein expression was induced by addition of L-arabinose to a final concentration of 0.1% for 1 hour. KY1429 cells were cultured as above except initial growth was performed at 32° C. followed by a shift to 42° C. for non-permissive expression of rpoH606. Top10 cells (F^−-mcrA Δ(mrr-hsdRMS-mcrBC) φ80lacZΔM15 ΔlacX74 deoR recA1 araD139 Δ(ara-leu)7697 galU galK rpsL endA1 nupG) containing the ibpAB promoter fusion (pHK57), were transformed with expression constructs listed above. Beta-galactosidase assays were performed essentially as described by Miller (24). Fractionation of soluble and insoluble proteins was performed by centrifugation. Cultures were resuspended in 50 mM Tris pH 7.9, 50 mM NaCl, 1 mM MgCl2, 3 mM methionine and sonicated for 2 minutes on ice. Cell debris and insoluble protein aggregates were pelleted by centrifugation at 3000×g for 15 minutes. The soluble fraction was removed and the pellets resuspended in an equivalent volume of lysis buffer.

B1: TM0294: T. maritima glutamate 5-kinase (proB) (protein, UniProt Q9WYD0 1-353, looked up)
Glutamate 5-kinase: MIMKVVVKVGSNLLVGSSGLRKSYIAELCREVARLKSQGHEISIITSGARAAGFTYLGKGKRTQDLHIKQALCAVGQVQLMKVYENAFDFYGIKIAQILLTRDTFSNRKRYLNLRNTLIGLSEFDVVPIVNENDTVATEEITLGDNDTLAAMFSIAWDADFLVLFTTVDGVIDENGKLVERFDESVKLKDMGKSSWGTGGIRSKIESALMASRCGVKATICSGNDVSNLTRFVKGEPVGTVFEPQGRLKAKKAWIAFLSEPAGKIYVNKGAEEALKSGNSLLPVGVTGVEGTFDVGDVVEIVNEEGELVGRGIVNYSSSDLEKIAGHKSSDLKKILGYEGNKVVVHIDNMWVA
For B1, the pI [1] was 6.92.

B2: TM0688: T. maritima glyceraldehyde-3-phosphate dehydrogenase (gap) (protein, UniProt P17721 2-333, looked up)
Glyceraldehyde-3-phosphate …: ARVAINGFGRIGRLVYRIIYERKNPDIEVVAINDLTDTKTLAHLLKYDSVHKKFPGKVEYTENSLIVDGKEIKVFAEPDPSKLPWKDLGVDFVIESTGVFRNREKAELHLQAGAKKVIITAPAKGEDITVVIGCNEDQLKPEHTIISCASCTTNSIAPIVKVLHEKFGIVSGMLTTVHSYTNDQRVLDLPHKDLRRARAAAVNIIPTTTGAAKAVALVVPEVKGKLDGMAIRVPTPDGSITDLTVLVEKETTVEEVNAVMKEATEGRLKGIIGYNDEPIVSSDIIGTTFSGIFDATITNVIGGKLVKVASWYDNEYGYSNRVVDTLELLLKM
For B2, the pI [1] was 6.21 and the pre-determined expression characteristics [2] was “Insoluble”.

B3: TM0556: T. maritima 3-isopropylmalate dehydrogenase (leuB) (protein, UniProt Q9WZ26 1-354, looked up)
3-isopropylmalate …: MKIAVLPGDGIGPEVVREALKVLEVVEKKTGKTFEKVFGHIGGDAIDRFGEPLPEETKKICLEADAIFLGSVGGPKWDDLPPEKRPEIGGLLALRKMLNLYANIRPIKVYRSLVHVSPLKEKVIGSGVDLVTVRELSYGVYYGQPRGLDEEKGFDTMIYDRKTVERIARTAFEIAKNRRKKVTSVDKANVLYSSMLWRKVVNEVAREYPDVELTHIYVDNAAMQLILKPSQFDVILTTNMFGDILSDESAALPGSLGLLPSASFGDKNLYEPAGGSAPDIAGKNIANPIAQILSLAMMLEHSFGMVEEARKIERAVELVIEEGYRTRDIAEDPEKAVSTSQMGDLICKKLEEIW
In the case of B3, the pI [1] is reported as 5.44 and the pre-determined expression characteristics [2] is reported as “Soluble”.

B4: TM0574: T. maritima S-adenosylmethionine tRNA ribosyltransferase (queA) (protein, UniProt Q9WZ44 1-335, looked up)
S-adenosylmethionine:tRNA …: MKVSEFDYELPPELIAQEPVEPRDASRLMVLHRKTQRIEHRIFREIIEYLEPGDLLVLNVSKVIPARLYARKKTGASIEILLIERLEEGIWKCLVRPGQKVKKGTELVIDEDLSAVCLGRGEDGTRILKFQPQDDRLIFEKGRTPLPPYIKNEVPLERYQTVYAKEEGSVAAPTAGLHFTPELIEKLKKKGVQFAEVVLHVGIGTFRPVKVEEVEKHKMHEEFYQVPKETVRKLRETRERGNRIVAVGTTTVRTLETIARLPEQEEYVGKTDLFIYPPFEFKLVDALVTNFHLPRSTLLMLVAAFAGKDFVMEAYREAVKRRYRFFSFGDAMLIL
In the case of B4, the pI [1] is reported as 8.61 and the pre-determined expression characteristics [2] is reported as “Soluble”.
